Data as given in patent US20060134116A1, “Ca 125 tumor antigen function and uses thereof” (Universite De Sherbrooke, priority 2002, published 2006).

Columns and labels:
[1] = test system: purified human CA125; experiment: CA125 binding analysis by ELISA (periplasmic extracts); conditions: commercially purified human CA125
Description: A) CA125 binding activity of anti-CA125 OC125, VK-8-1.9 and VK-8-4.5 scFvs present in periplasmic extracts of bacteria as well as anti-Bcl2 4D7 scFv compared to parental Mabs OC125 and VK-8 and to PBS and periplasmic extract from bacteria, uninduced, IPTG-induced and controls.
The inventors constructed single-chain antibody libraries derived from the OC125 and VK-8 hybridoma cell lines specific for CA125. The two scFv libraries were screened for CA125 binding activity by ELISA using commercially purified human CA125. […] The inventors hypothesized that if those scFvs (CA125 binders) once expressed intracellularly were localized to and retained within the ER or the Golgi then CA125 antigen would be entrapped during synthesis and thus be unable to localize at cell surface and interact with other intracellular and/or extracellular proteins to achieve its function(s). The scFvs were targeted to the ER or trans-median Golgi by sequence fusion with an Igκ secretion leader and a KDEL signal or fusion with the N-terminal 81 amino acids of human beta 1,4-galactosyltransferase, a protein resident of the trans-medial Golgi (47-49) in addition ot a c-myc tag at the C-terminus.
Binding analysis by ELISA—Periplasmic extracts were prepared as previously described (29). […] The OD was read at 450 ηm in an ELISA plate reader.

[2] = target: T1, CA125 (Homo sapiens, UniProt Q8WXI7); experiment: Co-immunoprecipitation of scFvs with anti-CA125 MAbs from transiently transfected NIH:OVCAR-3 cells; format: binding; conditions: transient transfection in NIH:OVCAR-3
T1 construct: human ovarian cancer cell lines OVCAR-3 (high expresser of CA125); endogenous in cells; host or cells: NIH:OVCAR-3
Description: C) Immunoprecipitation and co-immunoprecipitation of Golgi- and ER-targeted OC125-3.11 scFv from transient transfection of pSTCF.GOLGI-OC125-3.11 and pSTCF.KDEL-OC125-3.11 in NIH:OVCAR-3 human ovarian cancer cells using anti-c-myc, anti-CA125 Mabs OC125 and VK-8, western blot probed with anti-c-myc 9E10 antibody.
D) Immunoprecipitation and co-immunoprecipitation of Golgi- and ER-targeted VK-8-1.9 scFv from transient transfection of pSTCF-GOLGI-VK8-1.9 and pSTCF.KDEL-VK8-1.9 in NIH:OVCAR-3 human ovarian cancer cells using anti-c-myc, anti-CA125 Mabs OC125 and VK-8, Western blot probed with anti-c-myc 9E10 antibody.
E) Immunoprecipitation and co-immunoprecipitation of ER-targeted VK-8-4.5 scFv from transient transfection of pSTCF.KDEL-VK8-4.5 in NIH:OVCAR-3 human ovarian cancer cells using anti-c-myc, anti-CA125 Mabs OC125 and VK-8, western blot prober with anti-c-myc 9E10 antibody. […]
Immunoprecipitation—NIH-OVCAR-3 cells were transiently transfected with the various scFv constructs using commercially available FuGene 6 transfection agent using the manufacturer's instruction. […] Protein concentration was measured by the Bradford method using the Bio-Rad protein assay according to the instruction provided by the manufacturer. […] Agarose or sepharose beads were pelleted and supernatants were analyzed by immunoblots for the presence of the various scFvs.

[3] = target: T1, CA125; experiment: Immunofluorescence of CA125 at the cell surface, transient transfection of OVCAR-3 cells; format: cell-based; conditions: transiently transfected OVCAR-3 cells
Description: B) NIH:OVCAR-3 cellswere transiently transfected with pSTCF.Golgi-OC125-3.11 or pSTCF.KDEL-VK-8-1.9 constructs and 48 hrs later the cells were fixed in ice-cold methanol. Expression of scFvs and CA125 was detected using the anti-c-myc A14 polyclonal antibody and anti-CA125 M11 monoclonal antibody. Oregon green anti-rabbit and Texas red anti-mouse secondary antibodies were used.
Anti-CA125 scFvs act therefore act as potent negative modulators of CA125.
Immunofluorescence—Transiently transfected NIH-OVCAR-3 cells or stable NIH:OVCAR-3 clones expressing the various anti-CA125 scFvs were grown on glass slide until a 50% confluence was reached. […] Slides were next washed 3 times in cold PBS, incubated for 30 min at room temperature with anti-mouse or anti-rabbit secondary antibodies coupled to Texas Red or Oregon green (1:1000), washed with PBS and mounted for visualization by fluorescence microscopy. Expression of the various anti-CA125 scFvs and CA125 was detected using anti-c-myc antibody (9E10, 1:500) and OC125 antibody (1:500). Localization of the scFvs was determined by comparing their pattern of expression with that of calreticulin and ADP-ribosylation factor for ER and Golgi localization using anti-calreticulin antibody (1:10000) anti-calreticulin and anti-ADP-ribosylation factor (1:400).

CA125 binding activity by ELISA [1]: bound to CA125
co-immunoprecipitation with CA125 using anti-CA125 OC125 and VK-8 MAbs [2]: co-immunoprecipitated
B1: OC125-3.11: anti-CA125 single-chain antibody derived from the OC 125 monoclonal antibody, fragment coded by SEQ ID NO 2 (protein)
chain: QVQLQQSGTVLARPGASVKMSLQASGYTFTSYWMHWVKQRPGQGLEWIGAIYPGNSDTSYNQKFKGKAKLTAVTSTSTAYMELSSLTNEDSAVYYCTRSYDWYFDVWGQGTTVTVSSGGGGSGGGGSGGGGSDIELTQSPAILSVSPGERVSFSCRASQSIGTDMHWYQQRTNGSPRLLIKYASESISGIPSRFSGSGSGTDFTLSINSVESEDIADYYCQQSYSWPLTFGAGTKLEIK
modifications: Golgi targeting; VH-linker-VL portion of OC125-3.11
expression of CA125 at the cell surface [3]: lost expression of CA125 at the cell surface
